Results published in the supplement of paper PMC9732359.
± gives the uncertainty stated by the source.

Assay: protein stability index of a GFP-peptide fusion (yeast GPS) (PSI 1-4); higher = more stable; sorted into four equal gates, so the index is relative within each strain
Method in brief: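 Mid-log yeast cultures in leucine-free medium, carrying a pooled plasmid library, were sorted into four equal gates by their GFP/Cherry fluorescence ratio. Each plasmid expressed Cherry along with GFP fused upstream of a tiled 17-residue yeast protein peptide. Plasmids recovered from each gate were PCR-amplified and Illumina-sequenced, with reads assigned to strains by barcodes. The protein stability index was obtained by summing each gate's read frequency weighted by its gate number.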

Sequence | protein stability index (doa10∆) | protein stability index (pdr5∆) | protein stability index (san1∆) | protein stability index (ubr1∆)
EVSALVRSLPKEEQPKQ [PRP8] | 1.23 ± 0.075 | 1.38 ± 0.082 | 1.26 ± 0.12 | 1.08 ± 0.051
TSQNPQRDAEISQPKSM [BRR2] | 3.27 ± 0.11 | 3.04 ± 0.27 | 3.11 ± 0.13 | 2.88 ± 0.11
MAESLVDLEEVMDTIQE [SSN8] | – | 3.02 ± 0.16 | 3.2 ± 0.19 | 3.2 ± 0.093
RVHANLQCISQINQGVP [SNF11] | 1.49 ± 0.043 | 1.42 ± 0.043 | 1.47 ± 0.067 | 1.89 ± 0.055
KPSFSFPGKPVDVQAPT [YOR098C/NUP1] | 2.72 ± 0.056 | 2.88 ± 0.094 | 3.12 ± 0.055 | 2.77 ± 0.068
PVDITMMENYQNISPVY [PRP8] | 2.28 ± 0.049 | 1.99 ± 0.06 | 2.2 ± 0.071 | 2.06 ± 0.038
GTVSRVNRLLSVIPLKG [RRP4] | 1.25 ± 0.058 | 1.38 ± 0.05 | 1.2 ± 0.14 | 1.23 ± 0.048
PLITRHCYPRQLCQITC [RRP46] | 1.89 ± 0.054 | 2.02 ± 0.049 | 1.92 ± 0.095 | 2.11 ± 0.044
AVNWQDKQGWTPLFHAL [NAS6] | 2.07 ± 0.16 | 2.1 ± 0.18 | 2.4 ± 0.092 | –
LSILKGDYSQATVLSRK [RPN5] | 3.08 ± 0.07 | 3.02 ± 0.06 | 3.03 ± 0.075 | 2.72 ± 0.056
DIAFVLNNLPYKNEDVT [YCS4] | 2.61 ± 0.053 | 3.08 ± 0.051 | 2.94 ± 0.037 | 3 ± 0.065
DFELAVGKVMNKNQETA [RPT6] | 2.37 ± 0.21 | – | – | –
KSIMDGIHDGHIKKLLH [FAS1] | 1.54 ± 0.035 | 1.48 ± 0.037 | 1.37 ± 0.075 | 1.38 ± 0.024
YLKGATGHSQGLVTAVA [FAS1] | – | – | – | 3.86 ± 0.23
VVEPEHMADAKIMPKDI [SIR4] | 3.28 ± 0.1 | 3.35 ± 0.071 | 3.33 ± 0.085 | 3.12 ± 0.081
LNATKISPSAPSKDSFT [YAR002W/NUP60] | 2.8 ± 0.068 | 3 ± 0.068 | 2.94 ± 0.052 | 3 ± 0.043
DNEGVASKSKKKFNMGK [RPC53] | 3.33 ± 0.091 | 3.12 ± 0.13 | 3.15 ± 0.08 | 3.42 ± 0.08
EIRRSLSLNLGDYGSAK [POP5] | – | 3.06 ± 0.09 | 3.05 ± 0.18 | –
ELHKKLVEAAKLLKIPK [YDL116W/NUP84] | 2.57 ± 0.13 | 2.24 ± 0.15 | 2.33 ± 0.22 | 2.49 ± 0.1
KTPVFTTGGDYILSLVS [YMR129W/POM152] | 2.06 ± 0.056 | 2.13 ± 0.058 | 1.74 ± 0.064 | 1.87 ± 0.044
GMVKLNEYPVADAVTKD [REC8] | – | 2.87 ± 0.2 | 3.28 ± 0.043 | 3.36 ± 0.052
NSITSGGLKSCDLDFPL [YDL116W/NUP84] | 2.78 ± 0.078 | 3.11 ± 0.068 | 3.32 ± 0.072 | 3.2 ± 0.063
VKYMPEQKITEIEDGQD [RPO21] | 3.19 ± 0.12 | 3.12 ± 0.099 | 2.98 ± 0.098 | 3.19 ± 0.069
RHLPMYTEFIDSFIEKI [ITC1] | 2.4 ± 0.097 | 2.69 ± 0.075 | 2.85 ± 0.11 | 3 ± 0.066
ADVFRRCLVAVIQQDKY [SRP72] | 1.6 ± 0.11 | 2.17 ± 0.066 | 1.86 ± 0.1 | 2.74 ± 0.18
TNDRLNREAATKEVESN [DIS3] | 2.79 ± 0.14 | 2.58 ± 0.096 | 2.62 ± 0.12 | 3.1 ± 0.1
FKLSSESVIEQIVKYAR [RPS13] | 2.54 ± 0.1 | 2.97 ± 0.11 | 2.63 ± 0.097 | 2.72 ± 0.043
TPLSIKIMVAEWYLSHL [SRB8] | 2.83 ± 0.084 | 2.59 ± 0.095 | 2.18 ± 0.092 | 2.5 ± 0.063
